We go through 1 compound from publication PMC9321335, “Palmitic Acid-Conjugated Radiopharmaceutical for Integrin αvβ3-Targeted Radionuclide Therapy” (Pharmaceutics, 2022).

Where two headings read alike, the source gives them in different places.

Series [1] in a line: physchem. It counts as physicochemical. On the procedure:
Briefly, the radiopharmaceuticals were prepared and purified with Sep-Pak-C18 cartridges and then dissolved in a mixed solution of 5 mL n-octanol and 5 mL PBS. After vortexing for 1 h, the mixture was centrifuged at 10,000 rpm for 10 min. Samples (100 μL, n = 4) from the n-octanol and PBS components were collected and counted using a γ-counter. The […] were calculated as the logarithm of the n-octanol/PBS ratio.

Details of series [2]: species or system KM mice. Conditions: mouse, in vivo, iv. As to the method:
(§1) Female KM mice were randomly divided into three groups (n = 5). […] Blood samples obtained from the canthus vein were collected at different time points post injection (p.i.), weighed, and evaluated using a γ-counter. The results are presented as the percentage injected activity per gram (%IA/g). Nonlinear regression (curve fit) followed by two phase decay was performed using GraphPad Prism version 9.0.0 for Windows, GraphPad Software, San Diego, CA, USA, www.graphpad.com (accessed on 22 May 2022). And then the half-lives values were calculated and determined.

Details of series [3]: species or system C57BL/6 mice. Conditions: mouse, in vivo. On the procedure: as §1, with “determined. Blood clearance studies were performed in normal KM mice. […] Blood clearance studies were also performed in C57BL/6 mice.” for “determined.”
Series [4] can be described thus: in vivo. Conditions: C57BL/6, mouse, 37 MBq, total radioactivity. More on the design: species or system C57BL/6 mice. As to the method: SPECT/CT imaging was performed using a small animal SPECT/CT imaging system (Mediso Inc., Budapest, Hungary). Each mouse bearing MC38 tumors was injected with a radiotracer at a radioactivity of 37 MBq/1 mCi. The mice were imaged at 1, 4, 12, 24, and 72 h after injection of ^177Lu-Palm-3PRGD2 (37 MBq, 2.7 nmol), and the mice in the blocking study were imaged at 1 h p.i. […] Pinhole SPECT images (peak, 56.1, 112.9, and 208.4 keV; 20% width; frame time, 25 s) were acquired, and CT images were subsequently acquired (50 kV; 0.67 mA; rotation, 210°; exposure time, 300 ms). The raw data were reconstructed in a whole-body region. The SPECT and CT images were then fused using Nucline v 2.01 (Mediso Inc., Budapest, Hungary). The maximum intensity projection (MIP) was determined for whole-body imaging from the posterior view.

Series [5] has as its system MC38 tumor-bearing mice. As to the kind of experiment: in vivo. As to conditions: mouse. On the procedure:
Mice bearing MC38 xenografts were randomly divided into 10 groups (n = 4). The mice in five groups were administered 0.74 MBq/20 µCi of ^177Lu-Palm-3PRGD2 and sacrificed at 1, 4, 12, 24, and 72 h p.i. The mice on one group was injected with 0.74 MBq/20 µCi of ^177Lu-Palm-3PRGD2 and 500 μg (242 nmol) 3PRGD2 as a blocking agent and sacrificed at 1 h p.i. […] Tumors and major organs were harvested, weighed and measured for radioactivity using a γ-counter. The organ uptake was calculated as the percentage injected activity per gram (%IA/g). The effective absorbed dose in humans estimated from mouse biodistribution data by using a dedicated software (OLINDA 1.0).

As usually defined, the logD is lipophilicity at a set pH, counting ionised and neutral species. On to `CCCCCCCCCCCCCCCC(=O)N[C@@H](CCC(=O)NCCCC[C@H](NC(=O)CN1CCN(CC(=O)O)CCN(CC(=O)O)CCN(CC(=O)O)CC1)C(=O)NCCOCCOCCOCCOCCC(=O)N[C@@H](CCC(=O)NCCOCCOCCOCCOCCC(=O)NCCCC[C@@H]1NC(=O)[C@@H](Cc2ccccc2)NC(=O)[C@H](CC(=O)O)NC(=O)CNC(=O)[C@H](CCCNC(=N)N)NC1=O)C(=O)NCCOCCOCCOCCOCCC(=O)NCCCC[C@@H]1NC(=O)[C@@H](Cc2ccccc2)NC(=O)[C@H](CC(=O)O)NC(=O)CNC(=O)[C@H](CCCNC(=N)N)NC1=O)C(=O)O` [^177Lu-Palm-3PRGD2, [^177Lu]Lu-DOTA-Palm-3PRGD2, metal not drawn], for which the logD in series [1] is -1.25 ± 0.07. Further, in series [2], the “Half-Life (T1/2α)” value amounted to 4.49 min and the “Half-Life (T1/2β)” value came to 73.42 min. Besides, in series [3], the “Half-Life (T1/2α)” value amounted to 2.08 min and the “Half-Life (T1/2β)” value turned out to be 63.71 min. Moreover, the tissue uptake per volume at 1 h in series [4] stood at 15 ± 0.13 %ID/mL. Also, in series [5], the “AUC0h→72h in MC38 tumor” value is reported as 1031.0 ± 97.25 % IA/g·h, the AUC0h→72h in blood is given as 104.5 ± 7.98 % IA/g·h, the AUC0h→72h in kidney amounted to 1087.0 ± 62.73 % IA/g·h and the AUC0h→72h in liver amounted to 915.6 ± 74.74 % IA/g·h.
